The text below walks through data of article PMC4608562, “Carbohydrate Recognition Specificity of Trans-sialidase Lectin Domain from Trypanosoma congolense” (PLoS Neglected Tropical Diseases, 2015).

Assay [1] has as its target recombinant TconTS1 (Trypanosoma congolense trans-sialidase 1; CD, α-helix and LD) (Trypanosoma congolense). Description: SEC; Superdex 200 10/300 GL, 10 mM phosphate buffer pH 7.4, 4°C, 0.5 mL/min, 100 to 300 μg TconTS in 500 μL, detection at 280 nm; column calibrated with gel filtration markers 29,000-700,000 Da; monomer, dimer and oligomer peaks. On the technique in general: SEC sorts molecules by how far they enter the pores of the column.

Assay [2] addresses recombinant TconTS2 (Trypanosoma congolense trans-sialidase 2; CD, α-helix and LD) (Trypanosoma congolense). Described as above.
Another assay concerns the target T1, TconTS2-LD (Trypanosoma congolense, UniProt W0YLD6).
T1 construct: gene TS2; C-terminal lectin-like domain without the CD-LD linker alpha-helix; N-terminal His-MBP and C-terminal SNAP-Strep tags kept; expressed in E. coli Rosetta pLacI
As to the kind of experiment: STD NMR. The format is binding. As to conditions: 5.5 uM protein, 3.45 mM ligand; deuterated phosphate pD 7.4; site distinct from mannotriose site.

In assay [3] the target is TconTS1 enzymatically deglycosylated with EndoHf (native conditions) (Trypanosoma congolense). As to the kind of experiment: SEC; Superdex 200 10/300 GL, 10 mM phosphate buffer pH 7.4, 4°C, 0.5 mL/min, 100 to 300 μg TconTS in 500 μL, detection at 280 nm; column calibrated with gel filtration markers 29,000-700,000 Da; monomer, dimer and oligomer peaks.

“And” between values parts separate entries of the source, which are not always exact repeats. Identical values can stand only once.

As usually defined, the stoichiometry N is the number of molecules, sites or subunits per partner or assembly. With “recombinant TconTS1 (Trypanosoma congolense trans-sialidase 1; CD, α-helix and LD) (enzyme)”, in assay [1], the ratio of monomer to dimer (monomer:dimer) is 1; the stoichiometry N is 2 and 4.
For “recombinant TconTS2 (Trypanosoma congolense trans-sialidase 2; CD, α-helix and LD) (enzyme)”, in assay [2], the stoichiometry N was 2.
In the case of `OC[C@H]1O[C@@H](O[C@H]2[C@H](O)[C@@H](O)[C@@H](O)O[C@@H]2CO)[C@H](O)[C@@H](O)[C@H]1O` [lactose, β-D-galactosyl-(1–4)-α-D-glucose], the “STD NMR” value at TconTS2-LD is recorded as “Binding of lactose to TconTS2-LD was also clearly observed (Fig 3B)”.
Turning to “TconTS1 enzymatically deglycosylated with EndoHf (native conditions) (enzyme)”, the stoichiometry N in assay [3] was found to be 2.
